This is an account of results in patent publication US20080292704A1 (published 2008).

One experiment deals with T1, HSA1Fc (human, UniProt P02768 25-221).
T1 construct: range 1-197; also called Fc fusion protein; Ig fusion protein
As to the kind of experiment: ELISA on coated recombinant receptor, Protein G-HRPO detection. In general terms: In an ELISA, binding on a coated surface is turned into a signal by an enzyme label.

The target of experiment [1] is T2, HSA1R4 (human, UniProt P02768 25-221).
T2 construct: range 1-197; also called R4 ligand; HCH2 polymer
T2 sequence (P02768 other isoform, or with tags, fused parts or gaps): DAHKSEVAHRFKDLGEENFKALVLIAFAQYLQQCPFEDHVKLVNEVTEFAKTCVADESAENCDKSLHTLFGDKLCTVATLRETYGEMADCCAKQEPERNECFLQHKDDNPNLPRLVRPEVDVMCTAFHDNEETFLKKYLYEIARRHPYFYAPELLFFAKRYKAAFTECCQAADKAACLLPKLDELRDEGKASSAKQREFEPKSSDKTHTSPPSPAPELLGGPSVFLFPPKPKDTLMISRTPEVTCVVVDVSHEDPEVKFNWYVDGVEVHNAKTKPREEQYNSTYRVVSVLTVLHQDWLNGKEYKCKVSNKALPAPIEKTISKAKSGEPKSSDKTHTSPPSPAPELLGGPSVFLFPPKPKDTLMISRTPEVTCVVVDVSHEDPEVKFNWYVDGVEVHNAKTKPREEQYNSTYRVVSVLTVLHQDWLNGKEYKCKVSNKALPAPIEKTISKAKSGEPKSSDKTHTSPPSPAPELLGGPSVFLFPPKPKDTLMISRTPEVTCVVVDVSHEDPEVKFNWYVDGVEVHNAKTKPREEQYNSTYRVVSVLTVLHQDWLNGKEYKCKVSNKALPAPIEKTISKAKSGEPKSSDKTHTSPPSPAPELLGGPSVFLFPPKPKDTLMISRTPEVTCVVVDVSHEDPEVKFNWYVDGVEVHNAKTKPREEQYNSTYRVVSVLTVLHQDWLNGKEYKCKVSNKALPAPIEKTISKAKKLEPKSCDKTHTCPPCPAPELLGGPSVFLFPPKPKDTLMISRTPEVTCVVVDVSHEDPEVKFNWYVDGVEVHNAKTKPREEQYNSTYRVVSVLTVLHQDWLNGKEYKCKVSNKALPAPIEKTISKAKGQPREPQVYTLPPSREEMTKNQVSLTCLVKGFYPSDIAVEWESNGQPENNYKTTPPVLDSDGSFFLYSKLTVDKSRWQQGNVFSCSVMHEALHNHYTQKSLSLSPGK
As to the kind of experiment: ELISA on coated recombinant receptor (4 µg/mL), HRPO-Protein G detection.

For experiment [2], the target named is T2, HSA1R4. The experiment can be described thus: ELISA on coated recombinant receptor (2 µg/mL), HRPO-Protein G detection.

T1 sequence (P02768 other isoform, or with tags, fused parts or gaps): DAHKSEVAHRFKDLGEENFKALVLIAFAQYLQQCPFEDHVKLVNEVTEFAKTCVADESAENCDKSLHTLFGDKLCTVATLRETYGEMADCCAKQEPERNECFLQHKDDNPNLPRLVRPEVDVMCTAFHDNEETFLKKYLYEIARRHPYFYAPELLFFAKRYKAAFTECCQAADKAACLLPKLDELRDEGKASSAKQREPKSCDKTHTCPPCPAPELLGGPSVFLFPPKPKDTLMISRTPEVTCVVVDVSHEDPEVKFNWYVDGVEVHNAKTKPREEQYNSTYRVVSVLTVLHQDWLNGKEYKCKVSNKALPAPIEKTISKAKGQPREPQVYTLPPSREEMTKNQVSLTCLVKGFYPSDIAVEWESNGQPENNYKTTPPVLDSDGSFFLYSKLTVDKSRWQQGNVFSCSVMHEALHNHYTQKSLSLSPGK

B1: recombinant FcγRIIa ligand binding domain, 6xHis tagged (receptor)
chain: QAAAPPKAVLKLEPPWINVLQEDSVTLTCQGARSPESDSIQWFHNGNLIPTHTQPSYRFKANNNDSGEYTCQTGQTSLSDPVHLTVLSEWLVLQTPHLEFQEGETIMLRCHSWKDKPLVKVTFFQNGKSQKFSHLDPTFSIPQANHSHSGDYHCTGNIGYTLFSSKPVTITVQVPSMGSSSPMG
Take B1: the binding result in the experiment with HSA1Fc was “no binding (tested: 20 ug/mL (highest concentration tested))”.

B2: recombinant FcγRIIb ligand binding domain, 6xHis tagged (receptor)
chain: TPAAPPKAVLKLEPQWINVLQEDSVTLTCRGTHSPESDSIQWFHNGNLIPTHTQPSYRFKANNNDSGEYTCQTGQTSLSDPVHLTVLSEWLVLQTPHLEFQEGETIVLRCHSWKDKPLVKVTFFQNGKSKKFSRSDPNFSIPQANHSHSGDYHCTGNIGYTLYSSKPVTITVQAP
Consider B2, for which the binding result with HSA1R4 [1] is on record as “binds”; with HSA1Fc, “no binding (tested: 20 ug/mL (highest concentration tested))”.

B3: recombinant FcγRI ligand binding domain, 6xHis tagged (receptor)
chain: QVDTTKAVITLQPPWVSVFQEETVTLHCEVLHLPGSSSTQWFLNGTATQTSTPSYRITSASVNDSGEYRCQRGLSGRSDPIQLEIHRGWLLLQVSSRVFTEGEPLALRCHAWKDKLVYNVLYYRNGKAFKFFHWNSNLTILKTNISHNGTYHCSGMGKHRYTSAGISVTVKELFPAPVLNASVTSPLLEGNLVTLSCETKLLLQRPGLQLYFSFYMGSKTLRGRNTSSEYQILTARREDSGLYWCEAATEDGNVLKRSPELELQVLGLQLPTPVWFH
B3: the binding result in the experiment with HSA1Fc and with HSA1R4 [2] was “binds” throughout.
